According to patent publication US20230080534A1 (SHANGHAI BIOTROY BIOTECHNIQUE, published 2023):
Where a chain is given by its changes, count along the chain named. No end group written: not given here.

Key:
[1] = target: T1, human SEMG2 full-length protein (human, UniProt Q02383 24-582, limits assumed); assay: ELISA on SEMG2; the EC50 table prints no unit, the axis is log (antibody concentration, nM)
T1 construct: also called SEMG2 protein; semenogelin 2
T1 sequence: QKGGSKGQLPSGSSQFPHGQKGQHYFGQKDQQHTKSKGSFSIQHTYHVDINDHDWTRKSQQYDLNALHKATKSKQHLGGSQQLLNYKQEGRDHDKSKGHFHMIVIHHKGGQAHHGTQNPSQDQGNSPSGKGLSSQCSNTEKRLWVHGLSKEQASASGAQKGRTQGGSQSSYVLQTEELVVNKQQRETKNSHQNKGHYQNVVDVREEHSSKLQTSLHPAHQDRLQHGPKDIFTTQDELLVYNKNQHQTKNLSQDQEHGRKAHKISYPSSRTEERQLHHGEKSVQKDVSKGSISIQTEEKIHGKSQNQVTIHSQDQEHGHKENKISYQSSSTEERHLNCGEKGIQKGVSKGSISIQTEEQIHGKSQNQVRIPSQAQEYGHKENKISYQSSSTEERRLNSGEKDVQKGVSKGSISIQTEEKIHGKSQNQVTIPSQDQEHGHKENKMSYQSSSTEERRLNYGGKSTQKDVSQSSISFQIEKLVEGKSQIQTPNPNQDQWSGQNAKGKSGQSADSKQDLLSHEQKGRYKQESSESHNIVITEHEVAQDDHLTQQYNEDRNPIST

[2] = target: T2, BSA-conjugated human SEMG2 (497-509) polypeptide (human, also: coupled to BSA, site not given here); assay: ELISA (FIG. 21B-D)
T2 peptide: QIEKLVEGKSQIQ

[3] = target: T1, human SEMG2 full-length protein; assay: ELISA (FIG. 21B-D)
[4] = target: T2, BSA-conjugated human SEMG2 (497-509) …; assay: ELISA on BSA-S2 (497-509); curve without upper plateau; the EC50 table prints no unit, the axis is log (antibody concentration, nM)
[5] = target: T3, human CD27 (HA-tagged, expressed in HEK293 cells) (human, UniProt P26842 20-260, limits assumed); assay: co-immunoprecipitation, HEK293 co-transfection
T3 construct: Plasmid printed as 'pcDNA3-HA-CD2'; not shown: HA tag
T3 sequence (looked up): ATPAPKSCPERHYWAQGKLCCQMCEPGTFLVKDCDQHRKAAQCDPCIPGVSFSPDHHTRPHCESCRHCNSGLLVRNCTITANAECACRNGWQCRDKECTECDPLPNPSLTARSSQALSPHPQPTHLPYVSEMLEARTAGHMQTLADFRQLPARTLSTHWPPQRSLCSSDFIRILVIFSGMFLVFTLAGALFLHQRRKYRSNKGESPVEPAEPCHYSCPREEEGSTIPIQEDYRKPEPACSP
Procedure: In co-immunoprecipitation experiment, cells were lysed in IP buffer (Thermo Scientific) and Roche complete protease inhibitor for 10 minutes, followed by the addition of benzonase (sigma) for 25 minutes at room temperature. The lysate was then centrifuged at 15,000 rpm at 4° C. to remove the precipitate. The supernatant was then incubated with primary antibody slowly rotated overnight at 4° C., followed by the addition of protein A or protein G dynabeads and incubated at 4° C. for 2 hours, washed for 4 times in PBST (PBS with 0.01% Tween 20), eluted with 50 mM DTT in SDS sample buffer for 10 minutes at 100° C., separated with SDS, and immunoblotted as previously described.
To further confirm which part of SEMG-2 binds to CD27, fragments of SEMG2 protein were designed. The amino acid sequence of full-length SEMG2 protein (SEQ ID NO:1) was divided into 6 segments of sequences, fused with GFP and named as SEMG2-P1, SEMG2-P2, SEMG2-P3, SEMG2-P4, SEMG2-P5 and SEMG2-P6 (See Table 1 for specific sequences, with corresponding abbreviation as P1-P6 respectively). Plasmids expressing these amino acid sequences were co-transfected with CD27 into HEK293 cells, and co-immunoprecipitation experiments were performed to identify the main fragment of SEMG2 that binds to CD27.

QIEKLVEGKAQIQ = target: T4, QIEKLVEGKAQIQ (not fully specified); assay: ELISA, immobilized peptide QIEKLVEGKAQIQ
T4 construct: alanine at this position
T4 peptide: QIEKLVEGKAQIQ
Text: (§1) FIG. 20 depicts the value detected by ELISA, i.e., OD₄₅₀ absorbance. […] This experiment is used to determine the precise amino acid epitopes that different monoclonal antibodies bind to, and the relative importance of each amino acid to the binding antibody.

QAEKLVEGKSQIQ = target: T5, QAEKLVEGKSQIQ (not fully specified); assay: ELISA, immobilized peptide QAEKLVEGKSQIQ
T5 construct: member of the group m41; the text speaks of glycine substitution, the sheet prints alanine
T5 peptide: QAEKLVEGKSQIQ
Text: as §1

QIEKLVEGASQIQ = target: T6, QIEKLVEGASQIQ (not fully specified); assay: ELISA, immobilized peptide QIEKLVEGASQIQ
T6 construct: member of the group m41; the text speaks of glycine substitution, the sheet prints alanine
T6 peptide: QIEKLVEGASQIQ
Text: as §1

QIEALVEGKSQIQ = target: T7, QIEALVEGKSQIQ (not fully specified); assay: ELISA, immobilized peptide QIEALVEGKSQIQ
T7 construct: member of the group m41; the text speaks of glycine substitution, the sheet prints alanine
T7 peptide: QIEALVEGKSQIQ
Text: as §1

QIEKAVEGKSQIQ = target: T8, QIEKAVEGKSQIQ (not fully specified); assay: ELISA, immobilized peptide QIEKAVEGKSQIQ
T8 construct: alanine at this position
T8 peptide: QIEKAVEGKSQIQ
Text: as §1

QIEKLAEGKSQIQ = target: T9, QIEKLAEGKSQIQ (not fully specified); assay: ELISA, immobilized peptide QIEKLAEGKSQIQ
T9 construct: member of the group m41; the text speaks of glycine substitution, the sheet prints alanine
T9 peptide: QIEKLAEGKSQIQ
Text: as §1

QIEKLVEGKSAIQ = target: T10, QIEKLVEGKSAIQ (not fully specified); assay: ELISA, immobilized peptide QIEKLVEGKSAIQ
T10 construct: alanine at this position
T10 peptide: QIEKLVEGKSAIQ
Text: as §1

QIEKLVEGKSQIA = target: T11, QIEKLVEGKSQIA (not fully specified); assay: ELISA, immobilized peptide QIEKLVEGKSQIA
T11 construct: alanine at this position
T11 peptide: QIEKLVEGKSQIA
Text: as §1

SEMG2(563-574) fragment = target: T12, SEMG2(563-574) fragment (human); assay: ELISA, immobilized antigen SEMG2 (563-574)
T12 peptide: VAQDDHLTQQYN
Text: (§2) To clearly distinguish the binding epitopes of blocking antibodies (i.e., antibodies that can inhibit the binding between SEMG2 and CD27) and non-blocking antibodies, a corresponding ELISA analysis method was established. […] Anti-mouse or anti-rabbit secondary antibodies were then used to detect the corresponding bound antibodies.

QIEKLVEAKSQIQ = target: T13, QIEKLVEAKSQIQ; assay: ELISA, immobilized peptide QIEKLVEAKSQIQ
T13 construct: member of the group m41; position 504 is glycine in SEMG2 and the sheet prints alanine there
T13 peptide: QIEKLVEAKSQIQ
Text: as §1

SEMG2(354-403) fragment = target: T14, SEMG2(354-403) fragment (human); assay: ELISA, immobilized antigen SEMG2 (354-403)
T14 peptide: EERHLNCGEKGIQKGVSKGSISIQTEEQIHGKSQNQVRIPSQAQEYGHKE
Text: as §2

AIEKLVEGKSQIQ = target: T15, AIEKLVEGKSQIQ (not fully specified); assay: ELISA, immobilized peptide AIEKLVEGKSQIQ
T15 construct: member of the group m41; the text speaks of glycine substitution, the sheet prints alanine
T15 peptide: AIEKLVEGKSQIQ
Text: as §1

QIAKLVEGKSQIQ = target: T16, QIAKLVEGKSQIQ (not fully specified); assay: ELISA, immobilized peptide QIAKLVEGKSQIQ
T16 construct: member of the group m41; the text speaks of glycine substitution, the sheet prints alanine
T16 peptide: QIAKLVEGKSQIQ

[6] = target: T1, human SEMG2 full-length protein; assay: biolayer interferometry (ForteBio Blitz or Gator)
Procedure: The equilibrium dissociation constant (KD) of the antibody of the present invention binding to human SEMG2 was determined by biolayer interferometry (ForteBio Bltz or Gator instrument). […] 100 μl of SD buffer, antibody and SEMG2 were added to a 96-well black polystyrene half area microplate, respectively. Select the sensor location based on the sample location layout. KD values were analyzed using molecular interaction analysis software. In the experiments of the assays, the affinity constants of murine monoclonal antibodies and human antibodies H88-67, H88-93 and H88-96 are shown in Table 8, and the affinity and dissociation curves of SEMG2 and corresponding proteins are shown in FIG. 25.

QIEKLVEGKSQAQ = target: T17, QIEKLVEGKSQAQ (not fully specified); assay: ELISA, immobilized peptide QIEKLVEGKSQAQ
T17 construct: member of the group m41; the text speaks of glycine substitution, the sheet prints alanine
T17 peptide: QIEKLVEGKSQAQ
Text: as §1

[7] = target: T18, SEMG2(497-509) polypeptide QIEKLVEGKSQIQ (human); assay: ELISA, immobilized peptide QIEKLVEGKSQIQ
T18 peptide: QIEKLVEGKSQIQ
Text: as §1

[8] = target: T18, SEMG2(497-509) polypeptide QIEKLVEGKSQIQ; assay: ELISA, immobilized antigen SEMG2 (497-509)
Text: as §2

[9] = target: T1, human SEMG2 full-length protein; assay: ELISA, immobilized antigen SEMG2 (1-582)
Text: as §2

SEMG2(442-453) fragment = target: T19, SEMG2(442-453) fragment (human); assay: ELISA, immobilized antigen SEMG2 (442-453)
T19 peptide: IHGKSQNQVTIP
Text: as §2

[10] = target: T1, human SEMG2 full-length protein; assay: ELISA, plate coated with SEMG2 protein, anti-mouse secondary antibody; the EC50 table prints no unit, the axis is log (antibody concentration, nM)
QIEKLVAGKSQIQ = target: T20, QIEKLVAGKSQIQ (not fully specified); assay: ELISA, immobilized peptide QIEKLVAGKSQIQ
T20 construct: member of the group m41; the text speaks of glycine substitution, the sheet prints alanine
T20 peptide: QIEKLVAGKSQIQ
Text: as §1
To further precisely define the exact epitopes (specific to the level of single amino acid) to which blocking antibodies MM02, MM05, MM07, MM08, MM13, MM14 bind, corresponding ELISA analysis method was established. […] Anti-mouse or anti-rabbit secondary antibodies were then used to detect the corresponding bound antibodies.

B1: 67-3-67-6 (antibody, V domains shown)
VH: QVQLLESGGGVVQPGRSLRLSCAASGFTFSSYAMHWVRQASGKGLEWVAVISYDGSNKYYADSVKGRFTISRDNSKNTLYLQMNSLRAEDTAVYYCARMDNHGSPDYWGQGTLVTVSS
VL: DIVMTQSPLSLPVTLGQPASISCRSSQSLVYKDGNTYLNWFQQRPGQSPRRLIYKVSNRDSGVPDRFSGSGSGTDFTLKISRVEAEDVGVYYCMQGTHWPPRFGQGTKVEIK
[1]
  EC50: 0.313 nM
[2]
  fold higher affinity than the parent antibody (H88-67): > 10 fold
[3]
  fold higher affinity than the parent antibody (H88-67): > 10 fold
[4]
  EC50: 12.6 nM

B2: 67-6-67-6 (antibody, V domains shown)
VH: B1 VH with N101G
VL: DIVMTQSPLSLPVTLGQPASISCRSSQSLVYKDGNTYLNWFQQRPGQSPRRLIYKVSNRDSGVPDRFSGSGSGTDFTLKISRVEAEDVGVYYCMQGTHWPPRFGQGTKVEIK
[1]
  EC50: 0.619 nM
[2]
  fold higher affinity than the parent antibody (H88-67): > 10 fold
[3]
  fold higher affinity than the parent antibody (H88-67): > 10 fold
[4]
  EC50: 38.5 nM

B3: SEMG2-P4 fused with GFP (other)
chain: EYGHKENKISYQSSSTEERRLNSGEKDVQKGVSKGSISIQTEEKIHGKSQNQVTIPSQDQEHGHKENKMSYQSSSTEERRLNYGGKSTQKDVSQSSIS
notes: not shown: GFP fusion partner
[5]
  binding result: no binding

B4: SEMG2-P3 fused with GFP (other)
chain: KAHKISYPSSRTEERQLHHGEKSVQKDVSKGSISIQTEEKIHGKSQNQVTIHSQDQEHGHKENKISYQSSSTEERHLNCGEKGIQKGVSKGSISIQTEEQIHGKSQNQVRIPSQAQ
notes: not shown: GFP fusion partner
[5]
  binding result: no binding

B5: MM14 (antibody, IgG2b, V domains shown)
VH: QVQLKESGPGLVAPSQSLSITCTVSGFSLTSYAVSWVRQPPGKGLEWLGIIWGDGSTNYHSALISRLSISKDNSKSQVFLKLNSLQTDDTATYYCAKQERFSDGYYDGFAYWGQGTLVTVSA
VL: QIVLTQSPAIMSASPGEKVTITCSASSSVSYMHWFQQKPGTSPKLWIYSTSNLASGVPARFSGSGSGTSYSLTISRMEAEDAATYYCQQRSSYPFTFGSGTKLEIKR
QIEKLVEGKAQIQ
  OD450 absorbance: 0.022
QAEKLVEGKSQIQ
  OD450 absorbance: 0.54
QIEKLVEGASQIQ
  OD450 absorbance: 0.621
QIEALVEGKSQIQ
  OD450 absorbance: 0.777
QIEKAVEGKSQIQ
  OD450 absorbance: 0.161
QIEKLAEGKSQIQ
  OD450 absorbance: 0.804
QIEKLVEGKSAIQ
  OD450 absorbance: 1.18
QIEKLVEGKSQIA
  OD450 absorbance: 1.23
SEMG2(563-574) fragment
  binding result: no binding
QIEKLVEAKSQIQ
  OD450 absorbance: 0.47
SEMG2(354-403) fragment
  A450 absorbance: 0.003
  binding result: no binding
AIEKLVEGKSQIQ
  OD450 absorbance: 0.813
QIAKLVEGKSQIQ
  OD450 absorbance: 0.776
[6]
  Kd: 1.44 nM
QIEKLVEGKSQAQ
  OD450 absorbance: 0.588
[7]
  OD450 absorbance: 1.17
[8]
  A450 absorbance: 1.11
[9]
  A450 absorbance: 1.12
SEMG2(442-453) fragment
  A450 absorbance: 0.007
  binding result: no binding
[10]
  EC50: 0.507 nM
QIEKLVAGKSQIQ
  OD450 absorbance: 0.766

## EQKGRYKQESSESHNIVITEHEVAQDDHLTQQYNEDRNPIST (other, also: fused to GFP, variant, linker and side of fusion not given here, not shown: GFP fusion partner) [SEMG2-P6 fused with GFP]
[5]
  binding result: no binding

B6: SEMG2-P2 fused with GFP (other)
chain: QNPSQDQGNSPSGKGLSSQCSNTEKRLWVHGLSKEQASASGAQKGRTQGGSQSSYVLQTEELVVNKQQRETKNSHQNKGHYQNVVDVREEHSSKLQTSLHPAHQDRLQHGPKDIFTTQDELLVYNKNQHQTKNLSQDQEHGR
notes: not shown: GFP fusion partner
[5]
  binding result: no binding

B7: SEMG2-P1 fused with GFP (other)
chain: GSFSIQHTYHVDINDHDWTRKSQQYDLNALHKATKSKQHLGGSQQLLNYKQEGRDHDKSKGHFHMIVIHHKGGQAHHGT
notes: not shown: GFP fusion partner
[5]
  binding result: no binding
